Source: publication PMC9426472, “Blockade of the Adenylate Cyclase Toxin Synergizes with Opsonizing Antibodies to Protect Mice against Bordetella pertussis” (mBio, 2022)

How the values were obtained:
[1] = target: integrin αMβ2 (Homo sapiens) (UniProt P11215); experiment: SPR; conditions: cited from earlier work
[2] = target: T1, soluble, purified mouse αMβ2 integrin (ectodomain heterodimer) (mouse, UniProt P05555 17-1105; P11835 24-701); experiment: SPR; Biacore X100; M1F5 Fab amine-coupled to both flow cells of a CM5 chip (~2,500 RU); ~10 RU RTX (10 nM) captured on flow cell 2 in each cycle; mouse αMβ2 at 6.13 to 200 nM flowed for 180 s, dissociation 600 s; 10 mM HEPES pH 7.4, 150 mM NaCl, 1 mM CaCl2, 1 mM MgCl2, 0.05% Tween 20; global 1:1 binding model; conditions: both partners purified
T1 construct: also called CR3; MAC-1
T1 sequence (P05555 other isoform, or with tags, fused parts or gaps, chain 1 of 2): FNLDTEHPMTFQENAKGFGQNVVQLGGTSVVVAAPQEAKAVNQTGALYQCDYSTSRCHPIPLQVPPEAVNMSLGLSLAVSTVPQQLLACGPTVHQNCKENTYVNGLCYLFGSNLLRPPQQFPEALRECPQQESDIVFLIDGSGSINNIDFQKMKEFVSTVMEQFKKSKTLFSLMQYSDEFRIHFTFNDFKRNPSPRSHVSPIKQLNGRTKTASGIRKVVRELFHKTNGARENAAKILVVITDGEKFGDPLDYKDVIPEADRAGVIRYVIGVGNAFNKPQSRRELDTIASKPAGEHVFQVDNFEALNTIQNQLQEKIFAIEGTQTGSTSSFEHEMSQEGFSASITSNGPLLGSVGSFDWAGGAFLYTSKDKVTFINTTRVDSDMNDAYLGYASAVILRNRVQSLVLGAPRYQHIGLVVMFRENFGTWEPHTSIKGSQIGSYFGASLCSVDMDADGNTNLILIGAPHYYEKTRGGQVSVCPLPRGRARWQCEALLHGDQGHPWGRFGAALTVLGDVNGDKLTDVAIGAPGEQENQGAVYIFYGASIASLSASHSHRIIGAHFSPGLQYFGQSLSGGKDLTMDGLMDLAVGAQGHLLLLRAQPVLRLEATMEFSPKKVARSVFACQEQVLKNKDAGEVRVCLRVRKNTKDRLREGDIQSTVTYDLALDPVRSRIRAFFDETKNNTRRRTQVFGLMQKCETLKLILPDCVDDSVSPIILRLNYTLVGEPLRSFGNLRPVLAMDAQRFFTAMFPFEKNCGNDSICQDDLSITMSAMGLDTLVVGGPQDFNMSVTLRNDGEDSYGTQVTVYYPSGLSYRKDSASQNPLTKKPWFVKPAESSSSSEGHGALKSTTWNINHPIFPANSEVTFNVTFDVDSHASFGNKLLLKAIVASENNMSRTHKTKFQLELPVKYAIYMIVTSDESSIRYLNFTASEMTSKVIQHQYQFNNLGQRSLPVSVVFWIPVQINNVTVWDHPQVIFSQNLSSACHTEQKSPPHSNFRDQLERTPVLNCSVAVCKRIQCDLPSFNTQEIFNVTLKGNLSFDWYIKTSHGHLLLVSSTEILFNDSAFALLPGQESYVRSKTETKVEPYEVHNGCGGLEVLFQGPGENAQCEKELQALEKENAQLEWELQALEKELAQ
T1 sequence (P11835 other isoform, or with tags, fused parts or gaps, chain 2 of 2): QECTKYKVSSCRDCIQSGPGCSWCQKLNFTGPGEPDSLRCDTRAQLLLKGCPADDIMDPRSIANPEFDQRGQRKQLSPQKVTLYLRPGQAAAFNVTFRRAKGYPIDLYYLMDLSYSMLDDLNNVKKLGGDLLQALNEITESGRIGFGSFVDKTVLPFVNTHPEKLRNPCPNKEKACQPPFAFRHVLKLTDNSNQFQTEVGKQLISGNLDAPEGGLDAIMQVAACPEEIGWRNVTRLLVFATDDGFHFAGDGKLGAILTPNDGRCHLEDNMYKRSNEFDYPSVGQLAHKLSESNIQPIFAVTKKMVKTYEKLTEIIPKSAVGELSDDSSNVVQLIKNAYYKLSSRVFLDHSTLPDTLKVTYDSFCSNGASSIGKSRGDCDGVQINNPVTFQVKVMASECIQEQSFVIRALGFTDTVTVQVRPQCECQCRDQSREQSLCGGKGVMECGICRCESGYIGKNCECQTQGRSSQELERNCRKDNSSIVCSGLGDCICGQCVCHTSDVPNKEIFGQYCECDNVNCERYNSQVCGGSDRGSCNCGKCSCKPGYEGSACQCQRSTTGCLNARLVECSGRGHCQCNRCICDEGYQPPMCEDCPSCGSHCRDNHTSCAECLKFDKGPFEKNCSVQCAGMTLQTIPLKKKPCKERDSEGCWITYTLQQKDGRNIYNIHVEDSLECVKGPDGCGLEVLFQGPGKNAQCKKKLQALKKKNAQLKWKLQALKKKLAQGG

Molecule | Kd [1] [nM] | Kd [2] [nM] | koff [2] [s⁻¹] | kon [2] [M⁻¹ s⁻¹]
adenylate cyclase toxin RTX751 (from UniProt P0DKX7) | 57 |  |  | 
RTX751 (RTX domain of the Bordetella pertussis adenylate cyclase toxin, residues 751 to 1706) (domain or fragment, Cloned into the NheI and BamHI sites of pET28a+; The vector may add N-terminal residues (His tag, thrombin site) before the Strep tag; also called recombinant RTX751) ANSDGLRKMLADLQAGWNASSVIGVQTTEISKSALELAAITGNADNLKSVDVFVDRFVQGERVAGQPVVLDVAAGGIDIASRKGERPALTFITPLAAPGEEQRRRTKTGKSEFTTFVEIVGKQDRWRIRDGAADTTIDLAKVVSQLVDANGVLKHSIKLDVIGGDGDDVVLANASRIHYDGGAGTNTVSYAALGRQDSITVSADGERFNVRKQLNNANVYREGVATQTTAYGKRTENVQYRHVELARVGQLVEVDTLEHVQHIIGGAGNDSITGNAHDNFLAGGSGDDRLDGGAGNDTLVGGEGQNTVIGGAGDDVFLQDLGVWSNQLDGGAGVDTVKYNVHQPSEERLERMGDTGIHADLQKGTVEKWPALNLFSVDHVKNIENLHGSRLNDRIAGDDQDNELWGHDGNDTIRGRGGDDILRGGLGLDTLYGEDGNDIFLQDDETVSDDIDGGAGLDTVDYSAMIHPGRIVAPHEYGFGIEADLSREWVRKASALGVDYYDNVRNVENVIGTSMKDVLIGDAQANTLMGQGGDDTVRGGDGDDLLFGGDGNDMLYGDAGNDTLYGGLGDDTLEGGAGNDWFGQTQAREHDVLRGGDGVDTVDYSQTGAHAGIAAGRIGLGILADLGAGRVDKLGEAGSSAYDTVSGIENVVGTELADRITGDAQANVLRGAGGADVLAGGEGDDVLLGGDGDDQLSGDAGRDRLYGEAGDDWFFQDAANAGNLLDGGDGRDTVDFSGPGRGLDAGAKGVFLSLGKGFASLMDEPETSNVLRNIENAVGSARDDVLIGDAGANVLNGLAGNDVLSGGAGDDVLLGDEGSDLLSGDAGNDDLFGGQGDDTYLFGVGYGHDTIYESGGGHDTIRINAGADQLWFARQGNDLEIRILGTDDALTVHDWYRDADHRVEIIHAANQAVDQAGIEKLVEAMAQYPDPGAAAAAPPAARVPDTLMQSLAVNWR |  | 52 | 0.0028 | 55000
